According to PMC9170038, “Crowdsourced RNA design discovers diverse, reversible, efficient, self-contained molecular switches”:

B1: Eterna 7612252 (Exclusion - Arginine B) (ssRNA)
RNA: ACGUAAUGCAGAAGGAGCGUCUGAUUUUAACAUGAGGAUCACCCAUGUAAUAUUUAUGGUAGACAGGUAGGUCGCUGAAGUACGA
B2: Eterna 6436678 (Exclusion NG 2) (ssRNA)
RNA: AAAUUAAGAAGAGGAUAUUGACAUGAGGAUCACCCAUGUAUUUGGGAGUGUUUACUGAAUUCUUACGAGAAGGCUUACGAACUU
B3: Eterna 10350 (Sensor for hsa-mir-208a) (ssRNA)
RNA: GCCCAUAGUAUAUGGAUACAAGCUUUUUGACAUGAGGAUCACCCAUGUACUCGUCUUAUGUGCAGUCCGUAGACUGC
B4: Eterna 7769703 (Exclusion - Tryptophan A) (ssRNA)
RNA: AAACAUCACUGGGAGUGAUGUUCUCAGUGACGAGGACCGGUACGGCCGCCACUCGCGAGAGAACUAGUCUAGACUUGACUGCAUU
B5: Eterna 7616965 (Same State - Arginine A) (ssRNA)
RNA: UACAUGAGGAUCACCCAUGUAUGUAUCGAAGGAGCGCGUGUAAACGCAGGUAGGUCGCGAACAUGAGGAUCACACAUGAGGAUCA
B6: Eterna 7728774 (Exclusion - Theophylline A) (ssRNA)
RNA: AUCACAGUGAUGUUGUGAUAUGAUUCAGAUACCAGACUAGUGCUAGUCCCUUGGCAGCUGAACUCAGCAGCACCACUAGCACUCU
B7: Eterna 7619949 (Exclusion - Theophylline A) (ssRNA)
RNA: CGCAACCCUAAGGGAUUGUGGUUAUUAGAUACCAGUAUGAUGCAAUACCCUUGGCAGCUAAUACAUGAGGAUCACCCAUGUUGCG
B8: Eterna 5982822 (Brourd's mod of Exclusion 4) (ssRNA)
RNA: GGAUCGAAUGUGAGGAUAUGCUGGUCCUUGGAUCAGCAGAAGGCACAUGAGGAUCACCCAUGUGGUAACGGUCC
B9: Eterna 7697880 (Same State - Tryptophan B) (ssRNA)
RNA: AACAGCAAUGCGGCCGCCACUUCGAGGUCAGUGAUGUUGACAGAAUUAAAUAAAGAUCCCAAGAGGAGGACCGGGCAGUGCUGUU
B10: Eterna 1103 (Exclusion - Theophylline A) (ssRNA)
RNA: AGUGACGAGUGAUGUUCGUGAACACUGGAUACCAGCAGUCUUAUCUGCCCUUGGCAGCCAACGGGAACCGAAUGUUAAGACCUGU
B11: Eterna 7625640 (Exclusion - Theophylline B) (ssRNA)
RNA: UAUAUUGUGAUGGAUACCAGCAGAGAAAACGUUUAUCCUAACAUGAGGAUCACCCAUGUAUGCCCUUGGCAGCUGUUGUGGUAUA
B12: Eterna 7641374 (Exclusion - Arginine A) (ssRNA)
RNA: GACAUGAGGAUCACCCAUGUUUUCUAUGAAGGAGCGUCGGAAAUGACAGGUAGGUCGCAUGGUAGGACUUGUAUCUUGUAUGUAG
B13: Eterna 6056021 (Exclusion 3) (ssRNA)
RNA: GGGCCCGGAGGAUAUACAUGAGGAUCACCCAUGUAGGGCCCGGGUAUUCCCGGGUUUUGUAGAAGGCCGGGCCC
B14: Eterna 7708488 (Same State - Arginine A) (ssRNA)
RNA: UAUACGAAGCAGUGAUGUUGCUUAUGAGAAGGAGCGCACGAAAGUGCAGGUAGGUCGCUCAGCCAUGUGGACGAAAACGUCCACA
B15: Eterna 13817 (Sensor v3, turn-off variant 2) (ssRNA)
RNA: UGUACUAUGCGUGCUGACAUGCGUAGUGCAGCAGGUGUAACAUGAGGAUCACCCAUGUCCUCAUUUGCUCGUCUUAA
B16: Eterna 6124659 (Same State NG 3) (ssRNA)
RNA: GAAUAUUCGUUGAACAUGAGGAUCACCCAUGUAACUUGACAUGAGGAUAUGGAUUCUAAUUGGAUCCAGAAGGUAUGAAUAUUC
B17: Eterna 15548 (Exclusion 2) (ssRNA)
RNA: GUGUAGAUAGGAUAUGCUUUGAGCUUAUGAGAGUAUGCUCGACAUGAGGAUCACCCAUGUAGAAGGGUUUACAC
B18: Eterna 5987116 (Exclusion 5) (ssRNA)
RNA: UUAGGAUCAGGAUAUGAUGUUUUAAACAUGAGGAUCACCCAUGUAGAUCCUGAUUCAACAUCAGAAGGGAUAAUUU
B19: Eterna 5859795 (Exclusion NG 3) (ssRNA)
RNA: ACAUGAGGAUCACCCAUGUAAUGAAGGGUACUAUACUAAACGUAGGAUAUCGAUGUAAGAUUGUACGAGAAGGACGAUUGCCUU
B20: Eterna 7689816 (Same State - Arginine A) (ssRNA)
RNA: GCGAACAUUCGCAGUGAUGUUGCGACGGAAGGAGCGCGUGAAAACGCAGGUAGGUCGCCGACAUACUUAAUUUUACAGUGUUCGC
B21: Eterna 7678688 (Same State - Tryptophan A) (ssRNA)
RNA: AACACUCUGGGAGUGAUGUUCUCAAAUAACCGAGGACCGGUACGGCCGCCACUCGGAAAAGAGUGAGUCCUACGAAAAGUAGGAC
B22: Eterna 1109 (Exclusion - Theophylline A) (ssRNA)
RNA: UCGGCGGAGUGAUGUUCCUAUGUCCAAGAUACCAGUCUAUGAACGGACCCUUGGCAGCUUCCAUUAGGUUACUAUUUAGACUCAU
B23: Eterna 7688897 (Exclusion - Tryptophan B) (ssRNA)
RNA: ACGAUCAUGUCGGCCGCCACUGAGAGUAGUGAUGUUACUUUUAUGUUUUAGUUAUAAUAUUUGAACAGGACCGGGACAUGUUCGU
B24: Eterna 6391458 (Small Loop Exclusion NG 1) (ssRNA)
RNA: ACAUGUUUUGUAGGAUAUCACUAGUUGUGUUAUAUAUUUGUUAUAAUGUAUUGAGAAGGACAUUUACAUGAGGAUCACCCAUGU
B25: Eterna 6113948 (Same State NG 3) (ssRNA)
RNA: UGUUGUGAACAGAACAUGAGGAUCACCCAUGUGCACUCGUGUAAGGAUAUACAAUCGUAUGGAAAGUAGAAGGUACUAAUUAUG
B26: Eterna 7748347 (Exclusion - Theophylline B) (ssRNA)
RNA: UUUUAGGUAUCUGAUACCAGAGAAAAUAUAUGUAGUGAUGUUAUAUACAAAAUAAUUAAGCUCCCUUGGCAGCAGUUUUAAUUUU
B27: Eterna 11304 (Exclusion 2) (ssRNA)
RNA: UCGGCGCGAGGAUAUACGGUUGCUUGGUAGGGUCGUGGCGUACAUGAGGAUCACCCAUGUAGAAGGCGCGCCGC
B28: Eterna 6036671 (Sensor, turn-off variant 1) (ssRNA)
RNA: GUCCUGGAUUAUCACAAGCACAUGAGGAUCACCCAUGUCAUGGGUGGAUCCCUAAAUGGGUAUUCUGCUCGUCUUAU
B29: Eterna 7691660 (Exclusion - Tryptophan B) (ssRNA)
RNA: AGAUUCGACACGGCCGCCACUUGUGGUGGAUUAUCCUAUGUAAGACAUGAGUGAUGUUCAUGUACAAGGACCGGGUGUUGAGUCU
B30: Eterna 5860431 (Same State NG 1) (ssRNA)
RNA: UAAUGUUAGCGAGGAUAUCGUUUAUUGAAGUUACGAGAAGGCGCUCUUCUUACAUGAGGAUCACCCAUGUCUGUUUUGCAUGAU
B31: Eterna 7666983 (Same State - Theophylline A) (ssRNA)
RNA: AAUAACAUGAGGAUCACCCAUGUAAAAGAUACCAGGGUGAUGAUCCUCCCUUGGCAGCUUACAGCUGAUCAAUAAGAUCGGCUGA
B32: Eterna 6388885 (Inverted Exclusion NG 1) (ssRNA)
RNA: UUAUUUUUACAGAAGGUUUAAUAAUAUGUAUGAGAAGGAUAUGUAACAUGAGGAUCACCCAUGUUUUAUUUAUAUGAGGAUCAU
B33: Eterna 12785 (Exclusion 4) (ssRNA)
RNA: CUCGUGUGAGGAUAUCUAUUCCACGGACGGGAGUCUUGAAGAGAGAAGGCACAUGAGGAUCACCCAUGUAAUAA
B34: Eterna 7653720 (Same State - Theophylline B) (ssRNA)
RNA: UGUAUGUGAUUUGAUACCAGACCAGCUGGUGGUACCUGAGGAACACCCAGGUAGGUUUGGGUCCCUUGGCAGCAAAUCGCAUACU
B35: Eterna 6433253 (Small Loop Same State NG 3) (ssRNA)
RNA: CGUUUAUAUAUGGGUUUAUAUUAUGAGGAUAUCAAUAUUUAAUACAUGAGGAUCACCCAUGUUACUGAGAAGGCAUAAUUAACG
B36: Eterna 7727526 (Same State - Tryptophan A) (ssRNA)
RNA: GACGGGCAGUGAUGUUGCCGGUCUCUUGGACGAGGACCGGUACGGCCGCCACUCGAUCUGAUGCGAGAAUUGUAUCUUUUAAUAA
B37: Eterna 1281 (Exclusion - Tryptophan B) (ssRNA)
RNA: GAGAAUCUCACGGCCGCCACUCACCUGUUAAUUGACAUCGACGGCCUCGACCAGUGAUGUUGUGUGAGGACCGGGUGUCUCGUGU
B38: Eterna 6445724 (Inverted Small Loop Same State NG 1) (ssRNA)
RNA: AACCUAAAACAGAAGGCCAGCUACAUGAGGAUCACCCAUGUCGAAUCAUGGAGGAUAUGUUGUAAUUUACUCGCAGAUGAGUGC
B39: Eterna 6122884 (Exclusion NG 3) (ssRNA)
RNA: CGAUAACAUAGUUAUCCGUAACGGACAUGAGGAUCACCCAUGUAGGAUAUGUUACUAAACUAGUAACAGAAGGACAUGAGUCUU
B40: Eterna 7754737 (Exclusion - Tryptophan A) (ssRNA)
RNA: CGCUUUGCGUCCGGUAGUGAUGUUACCAAGCGAGGACCGGUACGGCCGCCACUCGAGUGACAGACGUACUGGUAUCACCCGCUUU
B41: Eterna 7684651 (Exclusion - Tryptophan A) (ssRNA)
RNA: AACUUAAUUUAUAAGCAGUGAUGUUGCUCACGAGGACCGGUACGGCCGCCACUCGAUCGGACUUAGGUCUUCAAUUAUUUCAUUA
B42: Eterna 6444393 (Inverted Same State NG 3) (ssRNA)
RNA: UGUUUUGUACAUGAGGAUCACCCAUGUUAAUAUGUGGUAGUCAGAAGGCAUUGUUUGAGAUAUUAUGAGGAUAUGAUUAGUCUG

molecular target: MS2 coat protein, dlFG mutant (Escherichia phage MS2, UniProt P03612, del68-81insG); assay: 4 mM Mg2+; no ligand; RNA-MaP array; 100 mM Tris-HCl pH 7.5, 80 mM KCl, 4 mM MgCl2, 0.1 mg/mL BSA, 1 mM DTT, 0.01 mg/mL yeast tRNA, 0.01% Tween-20; protein 1.5 nM to 3 uM; 37 C (Table S3); settings: chain copies: 2; label: tethered by stalled RNA polymerase

| Binder | Kd [nM] |
| --- | --- |
| B1 | 15.4 |
| B2 | 223 |
| B3 | 27.2 |
| B4 | > 3000 |
| B5 | 24.5 |
| B6 | > 3000 |
| B7 | 13.8 |
| B8 | 233 |
| B9 | > 3000 |
| B10 | > 3000 |
| B11 | 44.2 |
| B12 | 14.5 |
| B13 | 15 |
| B14 | > 3000 |
| B15 | 386 |
| B16 | 75.8 |
| B17 | 88.3 |
| B18 | 15.1 |
| B19 | 45.5 |
| B20 | > 3000 |
| B21 | > 3000 |

| Binder | Kd [nM] |
| --- | --- |
| B22 | > 3000 |
| B23 | > 3000 |
| B24 | 8.7 |
| B25 | 133 |
| B26 | > 3000 |
| B27 | 17.3 |
| B28 | 481 |
| B29 | > 3000 |
| B30 | 68.7 |
| B31 | 192 |
| B32 | 10.7 |
| B33 | 166 |
| B34 | 35.5 |
| B35 | 12.1 |
| B36 | > 3000 |
| B37 | > 3000 |
| B38 | 35.5 |
| B39 | 37.2 |
| B40 | > 3000 |
| B41 | > 3000 |
| B42 | 60.6 |
